Reference: patent US20240166688

Target: T1, peptide of SEQ ID NO: 1
T1 chain: GKCSTRGRKCCRRKK

B1: HDAC5 in RAW 264.7 cells (protein)
chain: MNSPNESDGMSGREPSLGILPRTPLHSIPVAVEVKPVLPGAMPSSMGGGGGGSPSPVELRGALAGPMDPALREQQLQQELLVLKQQQQLQKQLLFAEFQKQHDHLTRQHEVQLQKHLKQQQEMLAAKRQQELEQQRQREQQRQEELEKQRLEQQLLILRNKEKSKESAIASTEVKLRLQEFLLSKSKEPTPGGLNHSLPQHPKCWGAHHASLDQSSPPQSGPPGTPPSYKLPLLGPYDSRDDFPLRKTASEPNLKVRSRLKQKVAERRSSPLLRRKDGTVISTFKKRAVEITGTGPGVSSVCNSAPGSGPSSPNSSHSTIAENGFTGSVPNIPTEMIPQHRALPLDSSPNQFSLYTSPSLPNISLGLQATVTVTNSHLTASPKLSTQQEAERQALQSLRQGGTLTGKFMSTSSIPGCLLGVALEGDTSPHGHASLLQHVCSWTGRQQSTLIAVPLHGQSPLVTGERVATSMRTVGKLPRHRPLSRTQSSPLPQSPQALQQLVMQQQHQQFLEKQKQQQMQLGKILTKTGELSRQPTTHPEETEEELTEQQEALLGEGALTIPREGSTESESTQEDLEEEEEEEEEEEEDCIQVKDEDGESGPDEGPDLEESSAGYKKLFADAQQLQPLQVYQAPLSLATVPHQALGRTQSSPAAPGSMKSPTDQPTVVKHLFTTGVVYDTFMLKHQCMCGNTHVHPEHAGRIQSIWSRLQETGLLGKCERIRGRKATLDEIQTVHSEYHTLLYGTSPLNRQKLDSKKLLGPISQKMYAMLPCGGIGVDSDTVWNEMHSSSAVRMAVGCLVELAFKVAAGELKNGFAIIRPPGHHAEESTAMGFCFFNSVAITAKLLQQKLSVGKVLIVDWDIHHGNGTQQAFYNDPSVLYISLHRYDNGNFFPGSGAPEEVGGGPGVGYNVNVAWTGGVDPPIGDVEYLTAFRTVVMPIAQEFSPDVVLVSAGFDAVEGHLSPLGGYSVTARCFGHLTRQLMTLAGGRVVLALEGGHDLTAICDASEACVSALLSVELQPLDEAVLQQKPSVNAVATLEKVIEIQSKHWSCVQRFAAGLGCSLREAQTGEKEEAETVSAMALLSVGAEQAQAVATQEHSPRPAEEPMEQEPAL
Phosphorylation ratio (Phospho explorer antibody microarray, peptide + LPS against LPS alone): phosphorylation of HDAC5 was inhibited the most (0.278)
